Data: the supplement of paper PMC11316812
± gives the standard deviation of the averaged measurements.

Experiments:
hTERT-HMEC = test: percentage of EdU-negative (G0-arrested) nuclei per well, 72 h; higher = more G0 arrest; conditions: reference: sequence is the full UniProt precursor, the tested protein was the secreted form or ectodomain
MCF7 = test: as above; conditions: reference: sequence is the full UniProt precursor, the tested protein was the secreted form or ectodomain
[1] = protein concentration 0.0155 µM
[2] = protein concentration 0.00875 µM
[3] = protein concentration 0.0875 µM
[4] = protein concentration 0.0225 µM
[5] = protein concentration 0.03125 µM
[6] = protein concentration 0.3125 µM
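Note: secreted proteins added to cultured cells, EdU pulse at the end, nuclei found by Hoechst imaging, EdU status from nuclear versus surrounding ring intensity ratio, PBS as neutral control.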

Sequence: MLRGTLLCAVLGLLRAQPFPCPPACKCVFRDAAQCSGGDVARISALGLPTNLTHILLFGMGRGVLQSQSFSGMTVLQRLMISDSHISAVAPGTFSDLIKLKTLRLSRNKITHLPGALLDKMVLLEQLFLDHNALRGIDQNMFQKLVNLQELALNQNQLDFLPASLFTNLENLKLLDLSGNNLTHLPKGLLGAQAKLERLLLHSNRLVSLDSGLLNSLGALTELQFHRNHIRSIAPGAFDRLPNLSSLTLSRNHLAFLPSALFLHSHNLTLLTLFENPLAELPGVLFGEMGGLQELWLNRTQLRTLPAAAFRNLSRLRYLGVTLSPRLSALPQGAFQGLGELQVLALHSNGLTALPDGLLRGLGKLRQVSLRRNRLRALPRALFRNLSSLESVQLDHNQLETLPGDVFGALPRLTEVLLGHNSWRCDCGLGPFLGWLRQHLGLVGGEEPPRCAGPGAHAGLPLWALPGGDAECPGPRGPPPRPAADSSSEAPVHPALAPNSSEPWVWAQPVTTGKGQDHSPFWGFYFLLLAVQAMITVIIVFAMIKIGQLFRKLIRERALG
- percentage of EdU-negative (hTERT-HMEC; [1]): 4.92 ± 0.41%
- percentage of EdU-negative (hTERT-HMEC; protein concentration 0.155 µM): 9.145 ± 0.063%
- percentage of EdU-negative (MCF7; [1]): 24.8 ± 4.1%
- percentage of EdU-negative (MCF7; protein concentration 0.155 µM): 32.8 ± 1.1%

Sequence: MLRKGCCVELLLLLVAAELPLGGGCPRDCVCYPAPMTVSCQAHNFAAIPEGIPVDSERVFLQNNRIGLLQPGHFSPAMVTLWIYSNNITYIHPSTFEGFVHLEELDLGDNRQLRTLAPETFQGLVKLHALYLYKCGLSALPAGVFGGLHSLQYLYLQDNHIEYLQDDIFVDLVNLSHLFLHGNKLWSLGPGTFRGLVNLDRLLLHENQLQWVHHKAFHDLRRLTTLFLFNNSLSELQGECLAPLGALEFLRLNGNPWDCGCRARSLWEWLQRFRGSSSAVPCVSPGLRHGQDLKLLRAEDFRNCTGPASPHQIKSHTLTTTDRAARKEHHSPHGPTRSKGHPHGPRPGHRKPGKNCTNPRNRNQISKAGAGKQAPELPDYAPDYQHKFSFDIMPTARPKRKGKCARRTPIRAPSGVQQASSASSLGASLLAWTLGLAVTLR [Q86UN2]
- percentage of EdU-negative (hTERT-HMEC; [2]): 5.4 ± 1%
- percentage of EdU-negative (hTERT-HMEC; [3]): 5.31 ± 0.34%
- percentage of EdU-negative (MCF7; [2]): 26.2 ± 0.18%
- percentage of EdU-negative (MCF7; [3]): 28.6 ± 1.4%

Sequence: MLRLYVLVMGVSAFTLQPAAHTGAARSCRFRGRHYKREFRLEGEPVALRCPQVPYWLWASVSPRINLTWHKNDSARTVPGEEETRMWAQDGALWLLPALQEDSGTYVCTTRNASYCDKMSIELRVFENTDAFLPFISYPQILTLSTSGVLVCPDLSEFTRDKTDVKIQWYKDSLLLDKDNEKFLSVRGTTHLLVHDVALEDAGYYRCVLTFAHEGQQYNITRSIELRIKKKKEETIPVIISPLKTISASLGSRLTIPCKVFLGTGTPLTTMLWWTANDTHIESAYPGGRVTEGPRQEYSENNENYIEVPLIFDPVTREDLHMDFKCVVHNTLSFQTLRTTVKEASSTFSWGIVLAPLSLAFLVLGGIWMHRRCKHRTGKADGLTVLWPHHQDFQSYPK
- percentage of EdU-negative (hTERT-HMEC; [4]): 5.09 ± 0.47%
- percentage of EdU-negative (hTERT-HMEC; protein concentration 0.225 µM): 9.76 ± 1.8%
- percentage of EdU-negative (MCF7; [4]): 25.1 ± 1.5%
- percentage of EdU-negative (MCF7; protein concentration 0.225 µM): 30.8 ± 0.31%

Sequence: MLRMRVPALLVLLFCFRGRAGPSPHFLQQPEDLVVLLGEEARLPCALGAYWGLVQWTKSGLALGGQRDLPGWSRYWISGNAANGQHDLHIRPVELEDEASYECQATQAGLRSRPAQLHVLVPPEAPQVLGGPSVSLVAGVPANLTCRSRGDARPTPELLWFRDGVLLDGATFHQTLLKEGTPGSVESTLTLTPFSHDDGATFVCRARSQALPTGRDTAITLSLQYPPEVTLSASPHTVQEGEKVIFLCQATAQPPVTGYRWAKGGSPVLGARGPRLEVVADASFLTEPVSCEVSNAVGSANRSTALDVLFGPILQAKPEPVSVDVGEDASFSCAWRGNPLPRVTWTRRGGAQVLGSGATLRLPSVGPEDAGDYVCRAEAGLSGLRGGAAEARLTVNAPPVVTALHSAPAFLRGPARLQCLVFASPAPDAVVWSWDEGFLEAGSQGRFLVETFPAPESRGGLGPGLISVLHISGTQESDFSRSFNCSARNRLGEGGAQASLGRRDLLPTVRIVAGVAAATTTLLMVITGVALCCWRHSKASASFSEQKNLMRIPGSSDGSSSRGPEEEETGSREDRGPIVHTDHSDLVLEEEGTLETKDPTNGYYKVRGVSVSLSLGEAPGGGLFLPPPSPLGPPGTPTFYDFNPHLGMVPPCRLYRARAGYLTTPHPRAFTSYIKPTSFGPPDLAPGTPPFPYAAFPTPSHPRLQTHV [Q6UWL6]
- percentage of EdU-negative (hTERT-HMEC; [4]): 5.24 ± 0.16%
- percentage of EdU-negative (hTERT-HMEC; protein concentration 0.225 µM): 5.69 ± 0.77%
- percentage of EdU-negative (MCF7; [4]): 26.9 ± 3.4%
- percentage of EdU-negative (MCF7; protein concentration 0.225 µM): 28.2 ± 1.2%

Sequence: MLRRRGSPGMGVHVGAALGALWFCLTGALEVQVPEDPVVALVGTDATLCCSFSPEPGFSLAQLNLIWQLTDTKQLVHSFAEGQDQGSAYANRTALFPDLLAQGNASLRLQRVRVADEGSFTCFVSIRDFGSAAVSLQVAAPYSKPSMTLEPNKDLRPGDTVTITCSSYQGYPEAEVFWQDGQGVPLTGNVTTSQMANEQGLFDVHSILRVVLGANGTYSCLVRNPVLQQDAHSSVTITPQRSPTGAVEVQVPEDPVVALVGTDATLRCSFSPEPGFSLAQLNLIWQLTDTKQLVHSFTEGRDQGSAYANRTALFPDLLAQGNASLRLQRVRVADEGSFTCFVSIRDFGSAAVSLQVAAPYSKPSMTLEPNKDLRPGDTVTITCSSYRGYPEAEVFWQDGQGVPLTGNVTTSQMANEQGLFDVHSVLRVVLGANGTYSCLVRNPVLQQDAHGSVTITGQPMTFPPEALWVTVGLSVCLIALLVALAFVCWRKIKQSCEEENAGAEDQDGEGEGSKTALQPLKHSDSKEDDGQEIA [Q5ZPR3]
- percentage of EdU-negative (hTERT-HMEC; protein concentration 0.019 µM): 5.89 ± 0.34%
- percentage of EdU-negative (hTERT-HMEC; protein concentration 0.19 µM): 9.74 ± 0.48%
- percentage of EdU-negative (MCF7; protein concentration 0.019 µM): 24.4 ± 2.3%
- percentage of EdU-negative (MCF7; protein concentration 0.19 µM): 27.33 ± 0.26%

Sequence: MLSCRLQCALAALSIVLALGCVTGAPSDPRLRQFLQKSLAAAAGKQELAKYFLAELLSEPNQTENDALEPEDLSQAAEQDEMRLELQRSANSNPAMAPRERKAGCKNFFWKTFTSC
- percentage of EdU-negative (hTERT-HMEC; [5]): 5.72 ± 0.93%
- percentage of EdU-negative (hTERT-HMEC; [6]): 4.88 ± 0.35%
- percentage of EdU-negative (MCF7; [5]): 25.9 ± 3.1%
- percentage of EdU-negative (MCF7; [6]): 27 ± 1.9%
